Assay results: patent publication US20230183336A1 (MODMAB THERAPEUTICS, published 2023)

Molecular target: T1, recombinant mouse LRP6-His chimera (mouse, UniProt O88572 20-1370)
T1 construct: extracellular domain; also called ECD of mouse LRP6; not shown: His tag
T1 sequence (looked up): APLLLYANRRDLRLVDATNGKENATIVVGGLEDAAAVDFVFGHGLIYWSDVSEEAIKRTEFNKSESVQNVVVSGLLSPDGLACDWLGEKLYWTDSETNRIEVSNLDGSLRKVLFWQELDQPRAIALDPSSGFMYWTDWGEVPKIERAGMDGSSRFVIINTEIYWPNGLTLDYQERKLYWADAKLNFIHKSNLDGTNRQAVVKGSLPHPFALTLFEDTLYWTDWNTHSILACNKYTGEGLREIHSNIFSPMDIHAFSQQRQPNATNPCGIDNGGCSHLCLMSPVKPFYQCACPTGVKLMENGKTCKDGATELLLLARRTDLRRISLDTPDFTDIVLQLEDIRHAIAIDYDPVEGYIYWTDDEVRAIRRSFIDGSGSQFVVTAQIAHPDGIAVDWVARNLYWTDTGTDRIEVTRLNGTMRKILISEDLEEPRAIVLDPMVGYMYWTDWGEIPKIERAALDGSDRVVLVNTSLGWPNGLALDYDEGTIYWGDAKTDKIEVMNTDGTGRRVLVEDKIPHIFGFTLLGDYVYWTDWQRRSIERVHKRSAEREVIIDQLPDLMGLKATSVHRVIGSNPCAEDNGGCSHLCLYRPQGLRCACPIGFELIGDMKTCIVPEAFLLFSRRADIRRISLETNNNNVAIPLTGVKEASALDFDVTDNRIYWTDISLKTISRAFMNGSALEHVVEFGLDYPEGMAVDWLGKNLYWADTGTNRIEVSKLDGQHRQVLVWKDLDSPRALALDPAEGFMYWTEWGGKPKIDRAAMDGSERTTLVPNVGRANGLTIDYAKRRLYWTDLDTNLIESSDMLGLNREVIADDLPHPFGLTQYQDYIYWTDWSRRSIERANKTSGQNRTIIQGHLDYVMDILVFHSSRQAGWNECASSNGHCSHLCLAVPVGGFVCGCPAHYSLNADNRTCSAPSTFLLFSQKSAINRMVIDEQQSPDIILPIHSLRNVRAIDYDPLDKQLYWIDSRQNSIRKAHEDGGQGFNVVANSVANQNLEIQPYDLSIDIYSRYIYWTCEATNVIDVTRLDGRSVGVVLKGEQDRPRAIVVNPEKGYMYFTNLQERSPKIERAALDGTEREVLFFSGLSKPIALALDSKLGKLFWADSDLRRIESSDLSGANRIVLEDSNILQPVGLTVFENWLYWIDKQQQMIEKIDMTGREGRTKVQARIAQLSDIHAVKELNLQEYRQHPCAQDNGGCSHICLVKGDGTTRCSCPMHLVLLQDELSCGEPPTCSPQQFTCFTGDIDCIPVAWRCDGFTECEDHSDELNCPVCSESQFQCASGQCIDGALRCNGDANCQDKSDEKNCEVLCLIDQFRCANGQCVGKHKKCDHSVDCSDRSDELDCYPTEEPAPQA
Test: single-point ELISA, coated antigen, purified Fab or IgG1, anti-kappa-HRP

B1: LRP5-H5 (antibody, V domains shown)
VH: EVQLVESGGGLVQPGGSLRLSCAASGFNLSYSSIHWVRQAPGKGLEWVASISSSYGSTSYADSVKGRFTISADTSKNTAYLQMNSLRAEDTAVYYCARGYWAIDYWGQGTLVTVSS
VL: DIQMTQSPSSLSASVGDRVTITCRASQSVSSAVAWYQQKPGKAPKLLIYSASSLYSGVPSRFSGSRSGTDFTLTISSLQPEDFATYYCQQPVGHYGYPITFGQGTKVEIKR
notes: Fab-phage in the screen
binding result: binds
